Assay results published in patent publication EP4755919A1, “ANTI-TROP2 ANTIBODY, CONJUGATE COMPRISING SAID ANTIBODY, AND USE THEREOF” (Hanano Technologies Limited, priority 2023, dated 2024).

Legend:
serum albumin = serum albumin (UniProt P02768); experiment: relative binding activity against HuNb3-11; method not described
Trop2 [1] = molecular target: T1, Trop2 (UniProt P09758 27-323, limits assumed); experiment: flow cytometry on A431 cells, APC anti-HA detection
T1 construct: whole, on cells; also called TACSTD2; Trop2 on A431 cells
T1 sequence (looked up): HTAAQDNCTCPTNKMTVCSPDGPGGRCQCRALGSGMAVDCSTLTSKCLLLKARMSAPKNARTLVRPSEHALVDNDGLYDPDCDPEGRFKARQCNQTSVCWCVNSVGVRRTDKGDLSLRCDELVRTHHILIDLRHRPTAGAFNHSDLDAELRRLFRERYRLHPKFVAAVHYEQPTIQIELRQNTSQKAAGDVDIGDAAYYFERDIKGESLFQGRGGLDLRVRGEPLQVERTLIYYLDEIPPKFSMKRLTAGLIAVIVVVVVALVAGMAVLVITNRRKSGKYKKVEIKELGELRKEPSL

Trop2 [2] = molecular target: T1, Trop2; experiment: flow cytometry on BxPC3 cells, APC anti-HA detection
Trop2 [3] = molecular target: T1, Trop2; experiment: flow cytometry on A431 and BxPC3 cells, human albumin added during incubation, goat anti-VHH and Alexa Fluor488 donkey anti-goat detection
A431 cells [4] = experiment: Cell killing activity on A431 cells by Cell Counting Kit-8 (CCK8); format: cell-based; conditions: pre-incubated with human serum albumin, 96 hours culture, CCK8 OD450 (FIG.7)
Description: (§1) The long-acting Trop2 single domain antibody conjugated drug HuNb1-Alb […]-MMAE was gradiently diluted in cell medium and incubated with human serum albumin for 20 minutes, then co-incubated with A431 cells and BxPC3 cells, respectively. Cell Counting Kit-8 was added after 96 hours of culture at 37°C in 5% CO2 incubator, and the cells were incubated in the incubator for 2.5 hours. After reading the data (OD450) in the microplate reader, IC50 was calculated.

A431 cells [5] = experiment: Binding activity of long-acting Trop2 antibody conjugated drug to A431 cells by flow cytometry
Description: (§2) Flow cytometry was used to detect the binding activity of these candidate single domain antibodies to Trop2 high expression cell line A431. After the cultured A431 cells were digested with trypsin and neutralized in complete medium, the cells were washed once with PBS, collected and counted, and the cells were added to a 96-well V-bottom plate, 2E5 cells/well. Diluted candidate single domain antibodies and control antibodies BMK1, BMK2 and BMK3 (control antibody sequences are all referred to patent CN111518212B, where BMK1 sequence is the amino acid sequence as set forth in SEQ ID NO: 78, BMK2 sequence is the amino acid sequence as set forth in SEQ ID NO: 65, and BMK3 sequence is the amino acid sequence as set forth in SEQ ID NO: 68) were added to the plate respectively and incubated at 4°C for 40min. After centrifugation, cells were washed with PBS twice, and APC anti-HA antibody was added to incubate at 4°C for 40min. […] APC signal of each sample was detected by flow cytometry.
(§3) The long-acting Trop2 antibody conjugated drug HuNb1-Alb Nb1-MMAE was incubated with A431 and BxPC3 cells, and the binding activity of the antibody conjugated drug to the cells was detected by flow cytometry. […] After centrifugation, the cells were washed and the supernatant was removed, and the cells were resuspended in PBS and then the Alexa Fluor488 signal of each sample was detected by flow cytometry.

[6] = system: BxPC3 pancreatic cancer cells; experiment: Anti-tumor activity in BxPC3 tumor-bearing mice; format: in vivo; conditions: NCG mice
Description: NCG mice were inoculated with BxPC3 pancreatic cancer cells for tumorigenesis. When the tumors grew to about 80mm^3, they were divided into groups, with 6 mice in each group. Three dose groups were set up to be intraperitoneally injected with HuNb1-Alb Nb1-MMAE at 0.2mg/kg, 1mg/kg and 5mg/kg, three times a week, respectively. The negative control group was intraperitoneally injected with PBS. The positive control group was intraperitoneally injected with 150mg/kg Gemcitabine, three times a week.

BxPC3 cells [7] = experiment: Cell killing activity on BxPC3 cells by Cell Counting Kit-8 (CCK8); format: cell-based; conditions: pre-incubated with human serum albumin, 96 hours culture, CCK8 OD450 (FIG.8)
Description: as §1

BxPC3 cells [8] = experiment: Binding activity of long-acting Trop2 antibody conjugated drug to BxPC3 cells by flow cytometry
Description: as §2, §3

Sequence of serum albumin (P02768 25-609 limits assumed): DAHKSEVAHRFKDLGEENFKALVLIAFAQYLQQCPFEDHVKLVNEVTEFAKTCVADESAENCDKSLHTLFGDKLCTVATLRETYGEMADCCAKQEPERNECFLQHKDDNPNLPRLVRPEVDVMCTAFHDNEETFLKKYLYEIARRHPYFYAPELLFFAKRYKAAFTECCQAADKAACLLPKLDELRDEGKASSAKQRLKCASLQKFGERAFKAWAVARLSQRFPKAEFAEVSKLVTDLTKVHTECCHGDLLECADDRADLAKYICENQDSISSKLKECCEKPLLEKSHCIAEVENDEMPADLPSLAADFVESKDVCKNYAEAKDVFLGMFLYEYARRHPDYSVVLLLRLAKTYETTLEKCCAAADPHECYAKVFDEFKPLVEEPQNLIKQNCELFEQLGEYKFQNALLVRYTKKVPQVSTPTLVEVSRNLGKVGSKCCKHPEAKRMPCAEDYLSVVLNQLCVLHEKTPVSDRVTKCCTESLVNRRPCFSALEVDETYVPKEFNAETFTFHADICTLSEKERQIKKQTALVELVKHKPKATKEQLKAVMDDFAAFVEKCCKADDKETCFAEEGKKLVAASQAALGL

B1: anti-serum albumin single domain antibody Alb Nb1 (VHH)
VHH: EVQLQESGGGLVEPGGSLRLSCVASGFTFQHYAMSWVRQAPGKGLEWVSSISLVGGGTSYADSVKGRFTMSRDNAKNTLYLQLNSLKSEDTAMYYCVRGWHPDVPRPLGQGTLVTVSS
Relative binding activity EC50 (serum albumin): 92%

B2: anti-serum albumin single domain antibody Alb Nb2 (VHH)
VHH: EVQLQESGGGLVEPGGSLRLSCVASGFTFQHYAMSWVRQAPGKGLEWVSSISVVGGGTSYADSVKGRFTMSRDNAKNTLYLQLNSLKSEDTAMYYCVRGWHPDVPRPLGQGTLVTVSS
Relative binding activity EC50 (serum albumin): 95%

B3: anti-serum albumin single domain antibody Alb Nb3 (VHH)
VHH: EVQLQESGGGLVEPGGSLRLSCVASGFTFQHYAMSWVRQAPGKGLEWVSSISIVGGGTSYADSVKGRFTMSRDNAKNTLYLQLNSLKSEDTAMYYCVRGWHPDVPRPLGQGTLVTVSS
Relative binding activity EC50 (serum albumin): 80%

B4: anti-serum albumin single domain antibody Alb Nb4 (VHH)
VHH: EVQLQESGGGLVEPGGSLRLSCVASGFTFQHYAMSWVRQAPGKGLEWVSSISTVGGGTSYADSVKGRFTMSRDNAKNTLYLQLNSLKSEDTAMYYCVRGWHPDVPRPLGQGTLVTVSS
Relative binding activity EC50 (serum albumin): 71%

B5: Trop2 single domain antibody Nb1 (VHH)
VHH: QVQLQESGGGSVQAGGSLRLSCAASGFTFSRACMGWFRQASGKEREGVAQVYTGGGSTSYADSVKGRFTISQDNAKNTLYLQMNSLKPEDTAVYYCAVGQPYGACYYSDLAPADFSYWGQGTQVTVSS
notes: Camel-derived VHH expressed and purified from E. coli (phage vector pMECS); detected through an HA tag; also called Trop2 Nb1; candidate antibody Nb1; not shown: HA tag (and any other vector-derived tag from pMECS) used for APC anti-HA detection
binding result (Trop2 [1]): binds

B6: humanized Trop2 single domain antibody HuNb1 (VHH)
VHH: EVQLLESGGGLVQPGGSLRLSCAASGFTFSRACMGWFRQASGKGLEGVAQVYTGGGSTSYADSVKGRFTISQDNAKNTLYLQMNSLKPEDTAVYYCAVGQPYGACYYSDLAPADFSYWGQGTLVTVSS
notes: Humanized form of Nb1; also called Trop2 HuNb1; not shown: HA tag used for APC anti-HA detection
binding result (Trop2 [2]): binds

B7: humanized Trop2 single domain antibody HuNb2 (VHH)
VHH: EVQLLESGGGLVQPGGSLRLSCVDSGSTYSRRYMGWFRRAPGKGLEGVSVISPYGDSTYYADSVKDRFTISRDNAKNTVYLQMNSLKPEDTAMYYCAASWPYQTASLDAMDFTDWGQGTLVTVSS
notes: also called Trop2 HuNb2; not shown: HA tag used for APC anti-HA detection
binding result (Trop2 [1]): binds

B8: long-acting Trop2 antibody conjugated drug HuNb1-Alb Nb1-MMAE (bispecific antibody)
chain: EVQLLESGGGLVQPGGSLRLSCAASGFTFSRACMGWFRQASGKGLEGVAQVYTGGGSTSYADSVKGRFTISQDNAKNTLYLQMNSLKPEDTAVYYCAVGQPYGACYYSDLAPADFSYWGQGTLVTVSSGGGGSGGGGSGGGGSGGGGSEVQLQESGGGLVEPGGSLRLSCVASGFTFQHYAMSWVRQAPGKGLEWVSSISLVGGGTSYADSVKGRFTMSRDNAKNTLYLQLNSLKSEDTAMYYCVRGWHPDVPRPLGQGTLVTVSSGGC
modifications: vc-PAB-MMAE (Monomethylauristatin E) coupled to the free cysteine (C) at the C-terminus
notes: also called HuNb1-Alb Nb1-GGC conjugated with vc-PAB-MMAE
binding result (Trop2 [3]): binds

B9: HuNb1-Alb Nb1-MMAE: long-acting Trop2 antibody conjugated drug: HuNb1-Alb Nb1-GGC coupled with vc-PAB-MMAE (Monomethylauristatin E) (conjugate)
chain: EVQLLESGGGLVQPGGSLRLSCAASGFTFSRACMGWFRQASGKGLEGVAQVYTGGGSTSYADSVKGRFTISQDNAKNTLYLQMNSLKPEDTAVYYCAVGQPYGACYYSDLAPADFSYWGQGTLVTVSSGGGGSGGGGSGGGGSGGGGSEVQLQESGGGLVEPGGSLRLSCVASGFTFQHYAMSWVRQAPGKGLEWVSSISLVGGGTSYADSVKGRFTMSRDNAKNTLYLQLNSLKSEDTAMYYCVRGWHPDVPRPLGQGTLVTVSSGGC
killing effect on A431 cells (A431 cells [4]): significant killing effect | binding activity to A431 cells (A431 cells [5]; flow cytometry, Alexa Fluor488 signal (FIG.5)): good binding activity | effect of the presence of HSA protein on binding to A431 cells (A431 cells [5]; human blood albumin added during incubation (FIG.5)): not affected by the presence of HSA protein | tumor of high-dose group ([6]; high-dose group (5mg/kg intraperitoneal, three times a week), after treatment for 20 days): completely fades | treatment effect compared with Gemcitabine ([6]; high-dose group versus 150mg/kg Gemcitabine intraperitoneal, three times a week): significantly better than the treatment effect of Gemcitabine | BXPC3 tumor killing activity ([6]; intraperitoneal 0.2mg/kg, 1mg/kg and 5mg/kg, three times a week (FIG.9)): significant BXPC3 tumor killing activity | killing effect on BxPC3 cells (BxPC3 cells [7]): significant killing effect | binding activity to BxPC3 cells (BxPC3 cells [8]; flow cytometry, Alexa Fluor488 signal (FIG.6)): good binding activity | effect of the presence of HSA protein on binding to BxPC3 cells (BxPC3 cells [8]; human blood albumin added during incubation (FIG.6)): not affected by the presence of HSA protein
